In the nanobody polyreactivity screen of Harvey et al. (2022):

Experiment: yeast display, Sf9 membrane polyspecificity reagent, FACS + sequencing; frameworks hold sequencing errors
Method in brief: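 Nanobodies came from a synthetic yeast display library in Saccharomyces cerevisiae BJ5465, induced with galactose for 36–48 hours and stained for 1 hour at 4 °C with 10% biotinylated, detergent-solubilized Sf9 membrane reagent. Cells were enriched on streptavidin microbeads and then FACS-sorted, with low and high (top ~1%) gates set on anti-HA fluorescence for expression and streptavidin fluorescence for reagent binding. Each polyreactivity label reflects the gate a clone came from. Genes were amplified by colony PCR, sequenced by MiSeq 2 × 250 and filtered by CDR length.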

Sequence: QVQLVESGGGLVQAGGSLRLSCAATGRISVFYTMRWYRQPPGKATELVAVIRTSVGRTNYADYVKGRFTISRVNAKNTVYLQMNSLKPEDTAVYYCAAGVVSYGYNYYYWGQGTQVTVSS
- polyreactivity (PSR sort gate): low polyreactivity

Sequence: QVQLVESGGGLVQAGGSLRLSCAASGSTINSYTKGWYSQAPRKERELVAAISGSSGRTYDADSVKGRFTISRDNAKNTVYLQMNSLKPEDTAVYYGAAVDLYGGSDYWGQGTQVTVSS
- polyreactivity (PSR sort gate): high polyreactivity

Sequence: QVQLVESGGGLVQAGGSLRLSCAASGRTLFYYTMGWYRQAPGKERELVAAISSGDSTNYADSVKGRFTISRDNAKNTVYLQMNSLQPEDTAVYYCATQYLLDYKKTYRTYYSPYDYWGQGTQVTVSS
- polyreactivity (PSR sort gate): low polyreactivity

Sequence: QVQLVESGGGLVQAGGILRLSCAASGSIFSGYAMGWYRQAPGKERELVAAITWRAASTYYADSVKGRFTISRDNAKNTVYLQMNSLKPEDTAVYYCAKEGWPKPAFYYWGQGTQVTVSS
- polyreactivity (PSR sort gate): low polyreactivity

Sequence: QVQLVESGGGIVQAGGSLRLSCAASGRTFYGNVMGWYRQAPGKERELVATISFSAGSTYYADSVKGRFTISRDNAKNTVYLQMNSLKPEDTAVYYCNADHTDYASGGGNYWGQGTQVTVSS
- polyreactivity (PSR sort gate): low polyreactivity

Sequence: QVQHVESGGGLVQAGGSLRLSCAASGSTFTDYTMGWYRQAPGIESELVARIRSRGARTYYADSVKGRFTISRDNAKNTVYLQMNSLKPEDTAVYYCNKRWGAHRASPAYDYWGQGTQVTVSS
- polyreactivity (PSR sort gate): high polyreactivity

Sequence: QVQLEESGGGLVQAGGSLRLSCAASGRIFRGNAIAWYRQAPGKERELVASITRGNNTYYADSVKGRFTISRDNAKNTVYLQMNSLKPEDTAVYYCAKRYIYRYYWGQGTQVTVSS
- polyreactivity (PSR sort gate): high polyreactivity

Sequence: QVQLVESGGGLVQAGGSLRLSCAASGITFKYNAMGWYRPAPGKERELVAAISSGGNTYYADSVKGRFTISRDNAKNTVYLQMNSLKPEDTAVYYCAAPSYDTLWHDYWGQGTQVTVSS
- polyreactivity (PSR sort gate): low polyreactivity

Sequence: QVQLVESGGGLVQAGGSLRLSCAASGRTFYRNAMGWYRQAPGKEREFVASIDWSGGSTYYADSVKGRFTISRDNAKNTVYLQMNSLKPEDTAVYYCAAELDYFPGYDYWGQGTQVTVSS
- polyreactivity (PSR sort gate): low polyreactivity

Sequence: QVQLVESGGGLVQAGGSLRLSCAASGRTLNRNAMGWYRQAPGKERELVAAISRRGGSTNYADSVKGRFTISRDNAKNTVYLQMNSLKPEDTAVYYCARVTTVYDGRGFVDVKRGYWGQGTQVTVSS
- polyreactivity (PSR sort gate): high polyreactivity

Sequence: QVHLVESGGGLVQAGGSLRLSCAATGSTFPYNTMGWYRQAPGKERELVAAISSSGGSTYYADSVKGRFTISRDNAKNSVYLQRKSLKPEENAVYYCKAQIVASYQARRYYYWGQGTQVTVSS
- polyreactivity (PSR sort gate): low polyreactivity

Sequence: QVQLVESGGGLVQAGGSLRLSCAASGSTFWVYTMGWYRQAPGKERELVAAITLNGGSTYYADSVKGRFTISRDNAKNTVYLQMNSLKPEDTAVYYCAAYVFPFDKSYHYVGYDYWGQGTQVTVSS
- polyreactivity (PSR sort gate): low polyreactivity

Sequence: QVQLVESGGGLVQAGGSLRLSCAASGRTFIKNAMGWYRQAPGKERELVAAINWSGTRTYYADSVKGRFTISRDNAKNTVYLQMNSLKPEDTAVYYCAKVIARYVRYDYWGQGTQVTVSS
- polyreactivity (PSR sort gate): high polyreactivity

Sequence: QVQLVESRGGLVQAGGSLRLSCAASRSIFNINTMGWYRQAPGKERELVAAISYSGGSTYYADSVKGRFTISRDNAKNTVYLQKNSLKREDTAVYYCNVSPTTSGDGGGYDSWGQGTKVTVSS
- polyreactivity (PSR sort gate): low polyreactivity

Sequence: QVQLVESGGGLVQAGGSLRLSCAASGSIFGEYAMGWYRQAPGKERELVAAITFSTGSTYYADSVKGRFTISRDNAKNTVYLQMNSLKPEDTAVYYCAAESYTYYWYDYEYWGQGTQVTVSS
- polyreactivity (PSR sort gate): high polyreactivity

Sequence: QVQLVESGGGLFQAGGRLRLICAASGRIFTTNAMGWYRQAPGKERELVPAISRSGGSTNYADSVKGRFTISRDNAKNTVYLQMNSLIPEDTAVYYCAAVPTCNSFRSSFYYWGQGTQVTVSS
- polyreactivity (PSR sort gate): high polyreactivity

Sequence: QVQVVESGGGLVQAGGSLRLSCAPSGRIFQLYAMGRYRQAPRKERELVAVISSGDRTYYADSVKGRFTISRDNAKNTVYLQMNSLKPEDTAVYYCAALGWQSGGSRWHGEYDYWGQGTQVTVSS
- polyreactivity (PSR sort gate): low polyreactivity

Sequence: QVQLVESGGGLFQEGGSLRLICAASGFTFSGYAMGWYRQAPGKERELVDAISSSGGSTYYADSVKGRFTISRDNAKNTVYLQMNSLKPEDTAVYYCYDRSRYYPGYSRFFYWGQGTQVTVSS
- polyreactivity (PSR sort gate): high polyreactivity

Sequence: QVQLVESGGGLVQAGGSLRLSCAASGRTIGVYAMGWYRQAPGKERELVAAISWSGGTTYYADSVKGRFTISRDNAKNTVYLQMNSLKPEDTAVYYCAADSYTEVDYWGQGSQVTVSS
- polyreactivity (PSR sort gate): low polyreactivity

Sequence: QVQLVESGGGLVQAGGSLRLSCAASGRTFYSYAMGWYRQAPGKERELVAAISFRDGRTYYADSVKGRFTISRDNAKNTVYLQMNSLKPEDTAVYYCAAQLSHYYSLYYYWGQGTQVTVSS
- polyreactivity (PSR sort gate): high polyreactivity

Sequence: QVQLVESGGGLVQAGGSLRLSCAASGLTFAFYAMGWYRQAPGKEMELVARIRTSAITYYADSVKGSFTISRDNAKNTVYLQMNSLKPEDTAVYYCAAEEGRVFSGGYDYWGQGTQVTVSS
- polyreactivity (PSR sort gate): high polyreactivity

Sequence: QVQLVESGGGLVQAGGSLRLSCAASGSIFYRNAMGWYRQAPGKERELVAAISSDGSTNYADSVKGRFTISRDNAKNTVYLQMNSLKPEDTAVYYCAAPWTHILDYWGQGTQVTVSS
- polyreactivity (PSR sort gate): low polyreactivity
